Results: paper PMC3947485

Molecular target: TRAP1 from zebrafish (D. rerio), full-length mature protein (D. rerio)
Test: crystal structure

Substance: TRAP1 from zebrafish (D. rerio), full-length mature protein (natural protein)
- stoichiometry N: 2
